# Data published in patent EP4733314A1, “NOVEL BISPECIFIC FUSION PROTEIN AND USE THEREOF” (Slbigen Inc., priority 2023, dated 2024).
# Columns and labels:
# [1] = Body weight in MASH model with intestinal leakage (CD-HFD + DSS); assay type: in vivo, C57BL/6J mice; conditions: 55 nmol/kg twice daily s.c., two weeks after first administration
# From the text: (§1) Subsequently, the present inventors investigated the weight reduction and regulation of intestinal leakage in a metabolic dysfunction-associated steatohepatitis (MASH) animal model with intestinal leakage, using Liraglutide as a comparative control and MG12-8 according to one embodiment of the present invention. Specifically, twenty-week-old male C57BL/6J mice were obtained, and overweight was induced by feeding a choline-deficient high-fat diet (CD-HFD). In addition, intestinal leakage was induced by cyclically administering dextran sulfate sodium (DSS) at a low concentration of 1% for 7 days followed by 10 days of regular drinking water. After two weeks from the initiation of CD-HFD feeding, Liraglutide and MG12-8 were subcutaneously administered at their respective prescribed dosages and dosing intervals. Two weeks after the first administration, body weight was measured (FIG. 4a). To assess intestinal leakage, a fluorescein isothiocyanate (FITC)-Dextran (4 kDa) solution was administered orally 4 hours before sacrifice, after which the mice were fasted. The amount of FITC-Dextran translocated into the blood was then evaluated by measuring fluorescence intensity in serum.
# [2] = Intestinal leakage (serum FITC-Dextran fluorescence) in MASH model (CD-HFD + DSS); assay type: in vivo, C57BL/6J mice; conditions: 55 nmol/kg twice daily s.c.
# From the text: as §1
# [3] = Anti-diabetic effect in db/db mice (blood glucose, HbA1c, insulin, HOMA-IR, HOMA-β); assay type: in vivo; conditions: 15 nmol/kg s.c. every three days for 12 weeks
# Protocol: Specifically, 14-week-old male db/db mice (Janvier Labs, France) were subcutaneously injected every three days for 12 weeks with designated doses of Semaglutide, Tirzepatide, or the bispecific fusion protein MG12-8 according to one embodiment of the present invention. Subsequently, non-fasting blood glucose levels were measured at 25-day intervals (on days 25, 50, and 75 of the experiment), and HbA1c levels were measured monthly up to three months. Additionally, at the end of the experiment, fasting blood glucose and serum insulin concentrations were determined, and HOMA-IR and HOMA-β scores were calculated.
# [4] = Histological analysis of pancreatic tissue of db/db mice; assay type: in vivo; conditions: pancreas after 12 weeks of dosing
# From the text: Subsequently, after completion of the above experiment, the present inventors sacrificed the experimental animals and performed histological analysis of pancreatic tissues. Specifically, after euthanizing the animals under general anesthesia at the end of the animal study, the pancreas was excised, fixed in 4% paraformaldehyde, embedded in paraffin, sectioned transversely into 5 µm slices using a microtome, and then subjected to staining either with insulin alone, double staining with insulin and glucagon, or double staining with insulin and Ki-67. All double staining was carried out using fluorescent-labeled antibodies, followed by imaging with a confocal laser microscope.
# GLP-1 receptor = assay: cell-based or functional assay
# GLP-2 receptor = assay: cell-based or functional assay
"GLP-1 activity (Set1), EC50 (nM); cAMP bioluminescence in GLP-1R-expressing CHO-K1 cells (GLP-1 receptor) [nM]","GLP-1 activity (Set1), Relative activity compared with hGLP-1 peptide (%) (GLP-1 receptor)","GLP-1 activity (Set2), EC50 (nM); cAMP bioluminescence in GLP-1R-expressing CHO-K1 cells (GLP-1 receptor) [nM]","GLP-1 activity (Set2), Relative activity compared with hGLP-1 peptide (%) (GLP-1 receptor)","GLP-2 activity, EC50 (nM); cAMP bioluminescence in GLP-2R-expressing CHO-K1 cells (GLP-2 receptor) [nM]","GLP-2 activity, Relative activity compared with hGLP-2 peptide (%) (GLP-2 receptor)",Molecule,also measured
,,,,,,Liraglutide (HAEGTFTSDVSSYLEGQAAKEFIAWLVRGRG; REGION 1..31: note = Liraglutide) [GLP-1 receptor agonist marketed by Novo Nordisk as Victoza for the treatment of type 2 diabetes and obesity],body weight compared with vehicle [1]: reduced body weights compared with the vehicle-administered group; intestinal leakage suppression activity (serum FITC-Dextran) [2]: did not exhibit intestinal leakage suppression activity relative to the control
,,,,,,CC[C@H](C)[C@H](NC(=O)[C@H](CC(C)C)NC(=O)[C@H](Cc1c[nH]c2ccccc12)NC(=O)[C@H](CCC(N)=O)NC(=O)[C@@H](NC(=O)[C@H](Cc1ccccc1)NC(=O)[C@H](C)NC(=O)[C@H](CCCCNC(=O)COCCOCCNC(=O)COCCOCCNC(=O)CC[C@H](NC(=O)CCCCCCCCCCCCCCCCCCC(=O)O)C(=O)O)NC(=O)[C@H](CCC(N)=O)NC(=O)[C@H](C)NC(=O)[C@@H](NC(=O)[C@H](CCCCN)NC(=O)[C@H](CC(=O)O)NC(=O)[C@H](CC(C)C)NC(=O)C(C)(C)NC(=O)[C@@H](NC(=O)[C@H](CO)NC(=O)[C@H](Cc1ccc(O)cc1)NC(=O)[C@H](CC(=O)O)NC(=O)[C@H](CO)NC(=O)[C@@H](NC(=O)[C@H](Cc1ccccc1)NC(=O)[C@@H](NC(=O)CNC(=O)[C@H](CCC(=O)O)NC(=O)C(C)(C)NC(=O)[C@@H](N)Cc1ccc(O)cc1)[C@@H](C)O)[C@@H](C)O)[C@@H](C)CC)[C@@H](C)CC)C(C)C)C(=O)N[C@@H](C)C(=O)NCC(=O)NCC(=O)N1CCC[C@H]1C(=O)N[C@@H](CO)C(=O)N[C@@H](CO)C(=O)NCC(=O)N[C@@H](C)C(=O)N1CCC[C@H]1C(=O)N1CCC[C@H]1C(=O)N1CCC[C@H]1C(=O)N[C@@H](CO)C(N)=O [Tirzepatide],"insulin resistance index (HOMA-IR) [3]: > 40; number of Ki-67-positive cells per 10,000 µm^2 [4]: showed no improvement compared with the control group"
0.69,100,0.89,100,,,wild-type GLP-1 (human GLP-1 peptide) (from UniProt P01275 21-180),
,,,,1.18,,wild-type GLP-2 (human GLP-2 peptide),
1.57,44,1.12,79,2.42,49,MG12-6 (Fc fusion) chain 1: HGEGTFTSDVSSYLEGQAAKEFIAWLVKGGPSSGAPPPSGGGGSGGGGSGGGGSEKEKEEQEERTHTCPPCPSHTQPLGVFLFPPKPKDQLMISRTPEVTCVVVDVSQEDPEVQFNWYVDGVEVHNAKTKPREEQFNSTYRVVSVLTVLHQDWLNGKEYKCKVSNKGLPSSIEKTISKAKGQPREPQVYTLPPCQEEMTKNQVSLWCLVKGFYPSDIAVEWESNGQPENNYKTTPPVLDSDGSFFLYSRLTVDKSRWQEGNVFSCSVLHEALHNHYTQKSLSLSLGK chain 2: HGDGSFSDEMNTILDNLAARDFINWLIQTKITDGGGGGSGGGGSGGGGSAKNTTAPATTRNTTRGGEEKKKEKEKEEQEERTHTCPPCPSHTQPLGVFLFPPKPKDQLMISRTPEVTCVVVDVSQEDPEVQFNWYVDGVEVHNAKTKPREEQFNSTYRVVSVLTVLHQDWLNGKEYKCKVSNKGLPSSIEKTISKAKGQPREPQVCTLPPSQEEMTKNQVSLSCAVKGFYPSDIAVEWESNGQPENNYKTTPPVLDSDGSFFLVSRLTVDKSRWQEGNVFSCSVLHEALHNHYTQKSLSLSLGK,
0.35,194,0.57,156,50.8,2,MG12-7 (Fc fusion) chain 1: HGEGTFTSDVSSYLEGQAAKEFIAWLVKGGPSSGAPPPSGGGGSGGGGSGGGGSAKNTTAPATTRNTTRGGEEKKKEKEKEEQEERTHTCPPCPSHTQPLGVFLFPPKPKDQLMISRTPEVTCVVVDVSQEDPEVQFNWYVDGVEVHNAKTKPREEQFNSTYRVVSVLTVLHQDWLNGKEYKCKVSNKGLPSSIEKTISKAKGQPREPQVYTLPPCQEEMTKNQVSLWCLVKGFYPSDIAVEWESNGQPENNYKTTPPVLDSDGSFFLYSRLTVDKSRWQEGNVFSCSVLHEALHNHYTQKSLSLSLGK chain 2: HGDGSFSDEMNTILDGQAARDFINWLIQTKITDGGGGSGGGGSGGGGSEPKSSDKTHTCPPCPSHTQPLGVFLFPPKPKDQLMISRTPEVTCVVVDVSQEDPEVQFNWYVDGVEVHNAKTKPREEQFNSTYRVVSVLTVLHQDWLNGKEYKCKVSNKGLPSSIEKTISKAKGQPREPQVCTLPPSQEEMTKNQVSLSCAVKGFYPSDIAVEWESNGQPENNYKTTPPVLDSDGSFFLVSRLTVDKSRWQEGNVFSCSVLHEALHNHYTQKSLSLSLGK,
0.81,85,0.71,125,19,6,MG12-8 (Fc fusion) chain 1: HGEGTFTSDVSSYLEGQAAKEFIAWLVKGGPSSGAPPPSGGGGSGGGGSGGGGSGGGGSGGGGSGGGGSHGEGTFTSDVSSYLEGQAAKEFIAWLVKGGPSSGAPPPSGGGGSGGGGSGGGGSEPKSSDKTHTCPPCPSHTQPLGVFLFPPKPKDQLMISRTPEVTCVVVDVSQEDPEVQFNWYVDGVEVHNAKTKPREEQFNSTYRVVSVLTVLHQDWLNGKEYKCKVSNKGLPSSIEKTISKAKGQPREPQVYTLPPCQEEMTKNQVSLWCLVKGFYPSDIAVEWESNGQPENNYKTTPPVLDSDGSFFLYSRLTVDKSRWQEGNVFSCSVLHEALHNHYTQKSLSLSLGK chain 2: HGDGSFSDEMNTILDGQAARDFINWLIQTKITDGGGGSGGGGSGGGGSEPKSSDKTHTCPPCPSHTQPLGVFLFPPKPKDQLMISRTPEVTCVVVDVSQEDPEVQFNWYVDGVEVHNAKTKPREEQFNSTYRVVSVLTVLHQDWLNGKEYKCKVSNKGLPSSIEKTISKAKGQPREPQVCTLPPSQEEMTKNQVSLSCAVKGFYPSDIAVEWESNGQPENNYKTTPPVLDSDGSFFLVSRLTVDKSRWQEGNVFSCSVLHEALHNHYTQKSLSLSLGK,"relative GLP-1 activity, MG12-8 Sample #1; cAMP bioluminescence in HEK-GLP-1R cells (GLP-1 receptor): 100%; relative GLP-1 activity, MG12-8 Sample #2; cAMP bioluminescence in HEK-GLP-1R cells (GLP-1 receptor): 200%; relative GLP-1 activity, MG12-8 Sample #3; cAMP bioluminescence in HEK-GLP-1R cells (GLP-1 receptor): 300%; relative GLP-1 activity, MG12-8 Sample #4; cAMP bioluminescence in HEK-GLP-1R cells (GLP-1 receptor): 400%"
